The results in this text go back to article PMC5712427.

A word on the stoichiometry N: it is the number of molecules, sites or subunits per partner or assembly.

The experiment deals with Full length human APOBEC3G (human) (UniProt Q9HC16). The experiment in a line: time-lapse high-speed AFM.

“Full length human APOBEC3G (from UniProt Q9HC16 1-384) (enzyme)” gave a stoichiometry N of 2.
